The assay has as its target ATG16L1-(StrepII^2x)ATG5–ATG12 complex (UniProt Q676U5;Q9H1Y0;O94817). Description: BLI.

Drawing on publication doi:10.1101/2023.12.19.572309 (bioRxiv, 2023), this text covers Kd for one molecule.

ATG16L1-(StrepII^2x)ATG5–ATG12 complex, sequence (Q676U5 whole entry, chain 1 of 3): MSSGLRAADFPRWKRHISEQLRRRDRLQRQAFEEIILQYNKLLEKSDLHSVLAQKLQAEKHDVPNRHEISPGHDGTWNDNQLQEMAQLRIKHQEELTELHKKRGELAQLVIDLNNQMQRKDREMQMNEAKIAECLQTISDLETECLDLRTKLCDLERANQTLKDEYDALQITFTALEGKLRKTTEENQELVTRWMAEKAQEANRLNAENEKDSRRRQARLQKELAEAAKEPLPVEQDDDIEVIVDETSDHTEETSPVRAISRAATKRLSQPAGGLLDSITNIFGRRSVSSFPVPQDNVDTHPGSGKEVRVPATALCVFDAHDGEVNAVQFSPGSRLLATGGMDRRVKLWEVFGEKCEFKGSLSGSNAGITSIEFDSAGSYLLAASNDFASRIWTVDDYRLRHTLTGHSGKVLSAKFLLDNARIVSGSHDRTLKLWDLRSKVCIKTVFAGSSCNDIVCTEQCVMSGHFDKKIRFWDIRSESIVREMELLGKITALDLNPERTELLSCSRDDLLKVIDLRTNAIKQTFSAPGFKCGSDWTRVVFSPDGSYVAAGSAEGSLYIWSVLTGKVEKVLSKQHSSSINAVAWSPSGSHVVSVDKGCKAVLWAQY
ATG16L1-(StrepII^2x)ATG5–ATG12 complex, sequence (Q9H1Y0 whole entry, chain 2 of 3): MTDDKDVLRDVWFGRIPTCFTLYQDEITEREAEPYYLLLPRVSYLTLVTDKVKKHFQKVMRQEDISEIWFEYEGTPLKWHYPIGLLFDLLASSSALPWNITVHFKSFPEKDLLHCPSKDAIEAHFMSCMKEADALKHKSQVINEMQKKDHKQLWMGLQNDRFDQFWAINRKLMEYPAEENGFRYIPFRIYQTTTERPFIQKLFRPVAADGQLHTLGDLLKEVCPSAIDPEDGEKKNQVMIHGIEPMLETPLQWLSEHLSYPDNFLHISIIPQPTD
ATG16L1-(StrepII^2x)ATG5–ATG12 complex, sequence (O94817 whole entry, chain 3 of 3): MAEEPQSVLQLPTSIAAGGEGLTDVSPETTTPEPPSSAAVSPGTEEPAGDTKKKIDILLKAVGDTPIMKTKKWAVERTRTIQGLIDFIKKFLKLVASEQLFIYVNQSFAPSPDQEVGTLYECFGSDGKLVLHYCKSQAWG

B1: 6xHis-3xFLAG-V1H(1-351) (domain or fragment)
chain: MTKMDIRGAVDAAVPTNIIAAKAAEVRANKVNWQSYLQGQMISAEDCEFIQRFEMKRSPEEKQEMLQTEGSQCAKTFINLMTHICKEQTVQYILTMVDDMLQENHQRVSIFFDYARCSKNTAWPYFLPMLNRQDPFTVHMAARIIAKLAAWGKELMEGSDLNYYFNWIKTQLSSQKLRGSGVAVETGTVSSSDSSQYVQCVAGCLQLMLRVNEYRFAWVEADGVNCIMGVLSNKCGFQLQYQMIFSIWLLAFSPQMCEHLRRYNIIPVLSDILQESVKEKVTRIILAAFRNFLEKSTERETRQEYALAMIQCKVLKQLENLEQQKYDDEDISEDIKFLLEKLGESVQDLSS
A word on the Kd: it is the constant that tells how readily two partners part at equilibrium. A higher Kd goes with a looser complex. Turning to B1, the Kd was 9.2 µM.
